Measurements taken from article PMC11642994, “AGC family kinase of Entamoeba histolytica: Decoding the members biochemically” (PLOS Pathogens, 2024).
Entries after “also recorded” stand apart in the source; their conditions may differ. No end group written: not given here.

What was measured:
EhAGCK1 WT = EhAGCK1 WT (Entamoeba histolytica, UniProt C4M2W0); assay: Microscale Thermophoresis (MST), EhAGCK1 WT; assay type: binding
Experimental: Microscale Thermophoresis (MST) was performed in the presence of full-length and kinase-dead EhAGCK1 and EhAGCK2 proteins, along with HsGSK3, EhRhoGEF, and EhCoactosin peptide substrates. Proteins were labelled using a His-tag labelling kit, RED-tris-NTA 2nd Generation (Nano Temper Technologies, San Francisco, CA, USA). A brief labelling reaction was performed in a buffer containing (50 mM Tris-Cl pH 8, 150 mM NaCl, 1 mM β-ME and 5% glycerol) with a protein concentration of 20 nM and a molar dye: protein ratio of approximately 3:1. The mixture was kept at room temperature for 30 min, followed by centrifugation at 15000 g for 10 min at 4°C. A series of 16 1:1 dilutions were prepared using the same buffer, resulting in peptide concentrations ranging from 500 μM to […]. Following a 10 min incubation, the samples were loaded into standard monolith NT.115 capillaries from Nano Temper Technologies. […] Data from three independently pipetted measurements were analysed using MO. […]
The kinase assay data presented here are the mean ± standard error (SE) of n≥3 of three independent experiments. The Km and Vmax were determined from a direct, nonlinear fit of [V] versus [S] plots using the Michaelis-Menten equation: V=Vmax[S]/Km+[S] using the GraphPad Prism 9.0 software package (GraphPad Software Inc., CA, USA). […]

autophosphorylation = assay: ATP biotinylation kinase assay (autophosphorylation, SA-HRPO western blot); assay type: biochemical, Entamoeba histolytica; conditions: 4 μM kinase (EhPDK1 2 μM), 20 μM biotin-labelled ATP, 40 mM Tris-Cl pH 7.8, 10 mM MgCl2, 2 mM DTT, 30°C, 1 h
Experimental: ATP biotinylation assays were performed in the presence of 4 μM of EhAGCK1 (WT, T275D, and KDD1) and EhAGCK2 (WT, T274D, and KDD2) along with 2 μM of wild-type EhPDK1 in the presence of activation buffer 40 mM Tris-Cl pH 7.8, 10 mM MgCl2, and 2 mM DTT and incubated at 30°C for 1 h. The reaction was triggered by adding 20 μM biotin-labelled ATP (Catalogue NU-970-BIO, Jena Bioscience). 20 μl of the reaction was collected at the indicated time point and quenched by the addition of 4x SDS-loading dye. After gel electrophoresis, phosphorylated proteins were visualized by immunoblotting using HRPO-conjugated streptavidin (Invitrogen).
ATP biotinylated protein samples were separated by SDS-PAGE and then electro-transferred to PVDF membrane (Pall life sciences). The membrane was blocked overnight by 5% BSA (G-Biosciences) in TBS-T (TBS with 0.1% Tween 20) and stained with Ponceau S. This blocking process was done overnight at 4°C. The membrane was then incubated with 1:1000 dilution of HRPO-conjugated streptavidin (Invitrogen) at room temperature. Following antibody incubation, the blots were carefully cleaned with TBS-T. Band detection was carried out with a Millipore ECL kit.

HsGSK3 peptide = assay: ADP-Glo kinase activity of kinase variants with human GSK3 peptide in MgCl2 and MnCl2 buffers; assay type: biochemical; conditions: for kinase activity with HsGSK3 peptide in presence of Mn2+: Mn2+ present
Experimental: The phosphorylation activity of kinases was measured using the ADP-Glo kinase assay kit according to the manufacturer’s protocol with few modifications (Promega, Madison, WI, Catalogue number V6930). Assays were performed in a Corning 384-well low-volume white round bottom polystyrene NBS microplate with a total volume of 32 μl in the ratio of 1:1:2, corresponding to the kinase reaction, ADP-Glo reagent, and detection reagent, respectively. The kinase reaction was performed in an 8 μl volume containing 4 μl of purified protein kinases, 2 μl of peptide substrate, and 2 μl of ATP (Promega, Madison, WI). The working concentration of all the kinase reaction components was prepared in the standard kinase assay buffer (40 mM Tris-Cl pH 7.5, 20 mM MgCl2, 2 mM DTT). Along with other controls, only buffer-negative controls without protein kinase, substrate, and ATP were included in the kinase assay. Kinase assay reactions in each well were started immediately by adding ATP. The reactions were allowed to continue for 1 h at 30°C in the incubator chamber without shaking. The kinase assay was quenched by adding 8 μl of ADP-Glo reagent in each well before adding ADP-Glo reagent. The reaction plate was incubated for 5 min at room temperature. Termination reactions were allowed to proceed for 40 min at room temperature. ADP-Glo reagent, in addition to quenching the reaction, scavenges the unconsumed ATP from the reaction. In the final step of the ADP-Glo kinase assay, 16 μl of kinase detection reagent was added to each well and incubated for 40 min to simultaneously convert ADP to ATP and allow the newly synthesised ATP to be measured using a luciferase/luciferin reaction. The luminescent signal generated was measured using a SpectraMax i3x Multi-Mode Microplate Reader (Molecular Devices), and it was proportional to the ADP concentration produced and correlated with the kinase activity.
The kinase assay data presented here are the mean ± standard error (SE) of n≥3 of three independent experiments. The Km and Vmax were determined from a direct, nonlinear fit of [V] versus [S] plots using the Michaelis-Menten equation: V=Vmax[S]/Km+[S] using the GraphPad Prism 9.0 software package (GraphPad Software Inc., CA, USA). Additionally, the Microscale Thermophoresis (MST) experiments were conducted using the Monolith NT.11.5 instrument, with triplicate runs. Statistical comparisons were made using Student’s t-test. Differences in mean values were considered significant at *p-value≤0.05, **p-value≤0.01, ***p-value≤0.001, ****p-value≤0.0001.

[1] = target: T1, EhAGCK2 WT (Entamoeba histolytica AGC family kinase 2, EHI_053040), full-length recombinant His-tagged protein (Entamoeba histolytica, UniProt C4M3C2 1-434); assay: MST; His-tagged kinase labelled with RED-tris-NTA 2nd Generation dye, kept constant (50 nM by the legend); unlabelled peptide in 16 1:1 dilutions, 500 uM to 153 nM as printed; 50 mM Tris-Cl pH 8, 150 mM NaCl, 1 mM beta-ME, 5% glycerol; 25 C; Monolith NT.115, 50% LED, medium MST power; conditions: both partners purified
T1 construct: source: E. coli C41(DE3), purified (Ni2+-NTA)
T1 sequence: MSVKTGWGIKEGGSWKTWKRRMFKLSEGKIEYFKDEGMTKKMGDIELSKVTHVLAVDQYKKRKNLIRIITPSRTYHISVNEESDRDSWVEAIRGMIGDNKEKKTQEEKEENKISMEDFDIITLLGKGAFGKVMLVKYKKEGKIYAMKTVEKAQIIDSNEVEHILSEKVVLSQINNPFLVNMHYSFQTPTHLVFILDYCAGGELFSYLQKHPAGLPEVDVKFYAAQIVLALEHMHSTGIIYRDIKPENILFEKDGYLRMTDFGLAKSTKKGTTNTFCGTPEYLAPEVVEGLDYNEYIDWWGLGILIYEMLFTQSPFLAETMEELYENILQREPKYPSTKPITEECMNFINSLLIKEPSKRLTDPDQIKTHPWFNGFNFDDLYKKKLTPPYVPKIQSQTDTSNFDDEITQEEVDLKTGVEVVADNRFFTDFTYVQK

[2] = target: T2, EhAGCK1 WT (Entamoeba histolytica AGC family kinase 1, EHI_188930), full-length recombinant His-tagged protein (Entamoeba histolytica, UniProt C4M2W0 1-433); assay: as above; conditions: both partners purified
T2 construct: also called His-EhAGCK1; source: E. coli C41(DE3), purified (Ni2+-NTA)
T2 sequence: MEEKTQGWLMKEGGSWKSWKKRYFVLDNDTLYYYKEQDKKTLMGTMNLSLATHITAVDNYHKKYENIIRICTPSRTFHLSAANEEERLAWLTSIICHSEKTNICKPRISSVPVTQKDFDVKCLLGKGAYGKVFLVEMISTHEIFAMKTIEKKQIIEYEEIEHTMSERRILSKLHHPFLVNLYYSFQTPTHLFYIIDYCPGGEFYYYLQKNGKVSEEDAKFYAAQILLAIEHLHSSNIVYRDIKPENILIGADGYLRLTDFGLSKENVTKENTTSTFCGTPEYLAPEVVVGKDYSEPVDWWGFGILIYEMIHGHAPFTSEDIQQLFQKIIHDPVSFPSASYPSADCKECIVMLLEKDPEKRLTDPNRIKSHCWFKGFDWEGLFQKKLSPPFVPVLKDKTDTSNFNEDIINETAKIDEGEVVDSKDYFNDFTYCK

[3] = 50 μM HsGSK3 peptide, 250 μM ATP, 60 min, 30°C

“GRPRTTSFAESCK [HsGSK3, reference compound]” was tested, and the Kd (EhAGCK1 WT) was 2610 nM.

B1: EhAGCK2 WT: recombinant full-length wild-type His-tagged AGC family kinase 2 of E. histolytica (protein)
chain: MSVKTGWGIKEGGSWKTWKRRMFKLSEGKIEYFKDEGMTKKMGDIELSKVTHVLAVDQYKKRKNLIRIITPSRTYHISVNEESDRDSWVEAIRGMIGDNKEKKTQEEKEENKISMEDFDIITLLGKGAFGKVMLVKYKKEGKIYAMKTVEKAQIIDSNEVEHILSEKVVLSQINNPFLVNMHYSFQTPTHLVFILDYCAGGELFSYLQKHPAGLPEVDVKFYAAQIVLALEHMHSTGIIYRDIKPENILFEKDGYLRMTDFGLAKSTKKGTTNTFCGTPEYLAPEVVEGLDYNEYIDWWGLGILIYEMLFTQSPFLAETMEELYENILQREPKYPSTKPITEECMNFINSLLIKEPSKRLTDPDQIKTHPWFNGFNFDDLYKKKLTPPYVPKIQSQTDTSNFDDEITQEEVDLKTGVEVVADNRFFTDFTYVQK
modifications: left off: His tag, end not stated, kept
notes: recombinant full-length wild-type His-tagged AGC family kinase 2 of E. histolytica
With B1 the “autophosphorylation activity (words)” value (autophosphorylation) was “exhibited autophosphorylation activity”, the “autophosphorylation activity (words)” value (autophosphorylation; listed as EhAGCK2) was “able to accept biotin-ATP as substrate and underwent autophosphorylation” and the “kinase activity with HsGSK3 peptide in Mg2+ / without Mn2+ (words)” value (HsGSK3 peptide; Mg2+, 50 μM HsGSK3 peptide, kinase 0-80 μM, 250 μM ATP) was “phosphorylates HsGSK3 peptide”. The “ion preference for kinase activity” value (HsGSK3 peptide; MgCl2 versus MnCl2 buffer, HsGSK3 peptide) was “phosphorylates the peptide substrates in both MgCl2 and MnCl2 buffers; also recorded: optimal activity with Mg^2+”, the “kinase activity with HsGSK3 peptide in presence of Mn2+” value (HsGSK3 peptide; [3]) was “showed no increment, in fact, a small decrease in the average kinase activity” and the “Fold change (MgCl2: MnCl2)” value (HsGSK3 peptide; S1 Table, kinase activity in MgCl2 and MnCl2 buffers, 50 μM HsGSK3 peptide, 250 μM ATP, 60 min, 30°C) was 0.63.

B2: KDD1: kinase-dead domain EhAGCK1 (K147A and D241A) (protein)
chain: MEEKTQGWLMKEGGSWKSWKKRYFVLDNDTLYYYKEQDKKTLMGTMNLSLATHITAVDNYHKKYENIIRICTPSRTFHLSAANEEERLAWLTSIICHSEKTNICKPRISSVPVTQKDFDVKCLLGKGAYGKVFLVEMISTHEIFAMATIEKKQIIEYEEIEHTMSERRILSKLHHPFLVNLYYSFQTPTHLFYIIDYCPGGEFYYYLQKNGKVSEEDAKFYAAQILLAIEHLHSSNIVYRAIKPENILIGADGYLRLTDFGLSKENVTKENTTSTFCGTPEYLAPEVVVGKDYSEPVDWWGFGILIYEMIHGHAPFTSEDIQQLFQKIIHDPVSFPSASYPSADCKECIVMLLEKDPEKRLTDPNRIKSHCWFKGFDWEGLFQKKLSPPFVPVLKDKTDTSNFNEDIINETAKIDEGEVVDSKDYFNDFTYCK
modifications: left off: His tag, end not stated, kept
In the case of B2, the “autophosphorylation activity (words)” value (autophosphorylation) is reported as “remain inactive” and the “kinase activity with HsGSK3 peptide in presence of Mn2+” value (HsGSK3 peptide; [3]) is reported as “remained inactive”.

KAGGADYSFNTTSN [EhCoactosin peptide (from Coactosin, EHI_168340)] gave a Kd [1] of 413 nM.

Molecule SSPSSVPAAQSTTPVNVPK [EhRhoGEF peptide (from RhoGEF, EHI_008090)] has a Kd [2] of 307 nM.
